In PMC8376246, “Analysis of the mechanosensor channel functionality of TACAN” (eLife, 2021):
Residue numbers refer to the chain shown, from its start. Names may count otherwise.

B1: Mus musculus full-length TMEM120A (TACAN, residues 1–343), wild type (natural protein, UniProt Q8C1E7 1-343, looked up)
chain: MQSPPPDPLGDCLRNWEDLQQDFQGIQETHRLYRLKLEELTKLQANCTNSITRQKKRLQELALVLKKCRPSLPSESMEAAQELENQMKERQGLFFDMEAYLPKKNGLYLSLVLGNVNVTLLSKQAKFAYKDEYEKFKLYLTIILIVISFTCRFLLNSRVTDAAFNFLLVWYYCTLTIRESILINNGSRIKGWWVFHHYVSTFLSGVMLTWPDGLMYQKFRNQFLSFSMYQSFVQFLQYYYQSGCLYRLRALGERHTMDLTVEGFQSWMWRGLTFLLPFLFFGHFWQLFNALTLFNLARDPECKEWQVLMCGFPFLLLFLGNFFTTLRVVHQKFHSQQHGNKKD
notes: TMEM120A (TACAN), Mus musculus, full length, residues 1-343; the model of the structure holds residues 9-72, 76-250 and 262-335; A PreScission protease site lies between TACAN and the C-terminal eGFP; residues of the cut site probably stay on the C-terminus (surmised; expected monomer mass printed as 41,770 Da); Synthetic gene (GeneWiz); also called TACAN^WT; M. musculus TACAN; source: HEK293S …
B2: Mus musculus TACAN (TMEM120A) His196Ala, His197Ala mutant (natural protein, UniProt Q8C1E7 1-343, looked up)
chain: B1 chain with H196A, H197A
notes: TMEM120A (TACAN), Mus musculus, full length, residues 1-343, with H196A and H197A; the model of the structure holds residues 9-72, 76-250 and 262-335; Same construct as m1 with the two mutations; co-purified with coenzyme A (small molecule); Expected monomer mass printed as 41,637 Da; also called TACAN^(H196A H197A); His196Ala His197Ala mutant TACAN; source: HEK293S GnTI- cells, BacMam …

Molecular target: the molecule itself
Assay: cryo-EM structure; single-particle cryo-EM; purified protein at 6–7 mg/mL in digitonin, mixed with 2.9 mM FFC8; refined with C2 symmetry

Row | Protein | stoichiometry N | binding result
1 | B1 | 2 | –
2 | B2 | – | binds
